Results as given in patent US9696316B2, “Conformationally dynamic peptides” (SYSTEM OF SYSTEMS ANALYTICS, INC., priority 2009, dated 2017).
Ends that are not written are not given here. * marks the point of attachment. EDANS = O=S(=O)(O)c1cccc2c(NCCN*)cccc12; FAM = 5(6)carboxyfluorescein

What was measured:
[1] = molecular target: Aβ oligomer (Homo sapiens, UniProt P05067); experiment: Aβ oligomer assay with FRET-labeled probes; assay type: binding; details: FAM/EDANS labeled, water (FIG. 10 bottom panel B: increased β-sheet, FRET signal)
Aβ oligomer, sequence (P05067 672-713 limits assumed): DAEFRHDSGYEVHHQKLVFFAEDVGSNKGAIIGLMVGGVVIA
Excerpt: Alternatively, as illustrated in bottom panel B of FIG. 10, a peptide probe can be labeled at each terminus with members of a FRET pair (e.g. FAM and EDANS).

[2] = molecular target: T1, Aβ42 oligomer (Homo sapiens, UniProt P05067); experiment: Aqueous Aβ oligomer assay, pyrene fluorescence; assay type: binding; details: for reactivity with Aβ42 oligomers (transition from pyrene excimer fluorescence to pyrene self-fluorescence): aqueous assay
T1 sequence (P05067 672-713 limits assumed): as above
Excerpt: The conformation of peptide probe bound to the target protein can also be detected by measuring pyrene fluorescence, on the peptide alone and in combination with the target protein. […] The excimer fluorescence associated with the β-sheet conformation has a different wavelength than the monomer fluorescence associated with the alpha-helix conformation, and the excimer:monomer fluorescence ratio is 9:1. […] The addition of Aβ42 oligomer target protein results in a dose-dependent shift of the excimer:monomer fluorescence ratio to 20:1 at the highest Aβ42 oligomer concentration (0.3 μM). This change in excimer:monomer fluorescence ratio reflects a corresponding conformational change in the peptide, that results in increased β-sheet conformation, and decreased α helix conformation.
An Aβ oligomer assay may be conducted in an aqueous solvent, such as water. […] Upon introduction of Aβ oligomer, the fluorescence profile shifts to primarily self-fluorescence (monomeric) (see FIG. 11), which is associated with reduced β-sheet structure, or increased alpha helix structure.
As discussed above, Peptide 22 (SEQ ID NO: 2) undergoes a conformational change upon interaction with Aβ oligomer. FIG. 11 illustrates the fluorescence spectra for Peptide 22 labeled at each terminus with pyrene and incubated in aqueous conditions for several hours at room temperature in 10 mM Hepes (pH 7.0). […] (solid line=Time 0; dashed line=3 hours; dotted line=18 hours).
Peptide 22 (100 nM) is incubated in water for 15 hours at room temperature with equimolar concentrations ([…]) of several potential Aβ substrates: Aβ42 oligomer (type 1); Aβ42 oligomer (type 2); Aβ1-42 monomer; Aβ1-40 monomer; Aβ1-42 fiber; Aβ1-40 fiber; bovine serum albumin (control substrate); and carbonic anhydrase (control substrate).
With reference to FIG. 13A, Peptide 22 (70 nM) is incubated with […] synthetic Aβ42 oligomer at 25 C, and fluorescence emission spectra is recorded after 3 hours incubation. […] (solid line—no Aβ42 oligomer; dashed/dot line—30 nN Aβ42 oligomer; large dashed line—100 nN Aβ42 oligomer; small dashed line—300 nN Aβ42 oligomer)

[3] = molecular target: T1, Aβ42 oligomer; experiment: CD analysis of peptide probe with target protein; assay type: binding
Excerpt: The conformation of the peptide probe bound to the target protein can be assessed by CD analysis. […] The peptide alone is highly alpha helical (36%). Upon mixing of Peptide 38 with the target protein, the peptide undergoes a conformation shift that results in increased β-sheet conformation, and decreased α helix conformation. That is, the secondary structure of Peptide 38 is altered such that the proportion of a helix is halved (18%), while the proportion of β-sheet structure is enhanced from 20% to 31%. […] Circular dichroism (CD) analysis is used to determine the secondary structure of Peptide 22, synthetic Aβ42 oligomer, and a mixture thereof. Samples are incubated in 10 mM sodium phosphate (pH 7.0) for 3 hours at room temperature before measuring CD. For each sample, the relative ellipticity is evaluated from 190-260 nm. […] Each data set represents the average of three separate spectral scans.

[4] = CD analysis of peptide probe conformation under different pH and salt conditions; assay type: physicochemical
Procedure: As discussed in Example 2, histidine and glutamic acid residue substitutions were introduced into Peptides 22, 38 and 45 (SEQ ID NOs: 2-4) so as to permit the formation salt bridges between those residues. CD analysis can be performed on such peptides under different pH and salt conditions to determine the conformation of the peptide under given conditions.
Peptide 38 (SEQ ID NO:3) labeled at each terminus with a pyrene moiety is used in this example. […] The addition of 500 mM NaCl greatly diminishes the alpha helix conformation in favor of a β-sheet conformation, at both pH levels. Thus, at pH 7, in the presence of 500 mM NaCl (large dashed line), the alpha helix content is 4%, while the fβ-sheet content is 40% (up from 10% without the salt). At pH 4, in the presence of 500 mM NaCl (dashed/dot line), the alpha helix content is 6%, while the β-sheet content is 52% (up from 4% without the salt). […] At greater salt concentrations, the salt bridge is destroyed, and the α helical conformation is no longer stabilized.

[5] = Additional work on stability of the β-sheet conformation of variants; assay type: physicochemical; details: relative to parent sequence
[6] = mixed with Aβ42 oligomer (FIG. 8)

(FAM)EAA KLVFFAEDEGSRKHAIEGLMEGE(EDANS) ({FAM}-EAAKLVFFAEDEGSRKHAIEGLMEGE(EDANS); not fully specified (C-terminus)) [AD 290, P59, with FAM and EDANS, additional Ala, and solubilizing E residue]
FRET fluorescence behavior upon introduction of Aβ oligomer [1]: fluorescence behavior consistent with this type of conformation change

(FAM)EFR HDSGYEVHHQKLVFFAEDVGSNKGAIIGLME(EDANS) (EFRHDSGYEVHHQKLVFFAEDVGSNKGAIIGLME; not fully specified; FAM and EDANS labels) [AD292, Aβ residues 3-35, with FAM and EDANS and solubilizing E residue]
FRET fluorescence behavior upon introduction of Aβ oligomer [1]: fluorescence behavior consistent with this type of conformation change

(FAM)HHQ KLVFFAEDEGSRKHAIEGLMEGE(EDANS) ({FAM}-HHQKLVFFAEDEGSRKHAIEGLMEGE(EDANS); not fully specified (C-terminus)) [AD 291, P77, with FAM and EDANS and solubilizing E residue]
FRET fluorescence behavior upon introduction of Aβ oligomer [1]: fluorescence behavior consistent with this type of conformation change

(FAM)KLVFF AEDVG SNKBA IIELM E(EDANS) [AD293]
FRET fluorescence behavior upon introduction of Aβ oligomer [1]: fluorescence behavior consistent with this type of conformation change

KAAA KLVFFAEDVGSNKHAIIELMK (KAAAKLVFFAEDVGSNKHAIIELMK) [Peptide 45, Salt bridge at G29H and G33E; Ala additions to increase alpha-helicity]
reactivity with Aβ42 oligomers (transition from pyrene excimer fluorescence to pyrene self-fluorescence) [2]: react with Aβ42 oligomers

KLVFFAEDAAAAKHAIIELMK (KLVFFAEDAAAAKHAIIELMK) [Peptide 38, Salt bridge at G29H and G33E; Ala substitutions to increase alpha-helicity]
proportion of alpha helix (CD) [3, 6]: 18%
proportion of β-sheet structure (CD) [3, 6]: 31%
proportion of alpha helix (CD) ([3]; peptide alone (FIG. 8)): 36%
proportion of β-sheet structure (CD) ([3]; peptide alone (FIG. 8)): 20%
alpha helix content (CD) ([4]; pH 4, 500 mM NaCl): 6%
β-sheet content (CD) ([4]; pH 4, 500 mM NaCl): 52%
alpha helix content (CD) ([4]; pH 4, no added salt): 52%
β-sheet content (CD) ([4]; pH 4, without the salt): 4%
alpha helix content (CD) ([4]; pH 7, 500 mM NaCl): 4%
β-sheet content (CD) ([4]; pH 7, 500 mM NaCl): 40%
alpha helix content (CD) ([4]; pH 7, no added salt): 38%
β-sheet content (CD) ([4]; pH 7, without the salt): 10%
reactivity with Aβ42 oligomers (transition from pyrene excimer fluorescence to pyrene self-fluorescence) [2]: react with Aβ42 oligomers
preferential binding by state of self-aggregation of Aβ protein ([2]; versus monomers, fibers and control proteins): preferentially binds to Aβ protein in the form of soluble Aβ oligomers

KLVFFAEDVGDNKHADIELMK (KLVFFAEDVGDNKHADIELMK) [AD327, P22, with point mutation S26D, I31D]
effect of the substitutions on the β-sheet conformation of the probe [5]: destabilize the β-sheet conformation

KLVFFAEDVGDNKHAIIELMK (KLVFFAEDVGDNKHAIIELMK) [AD325, P22, with point mutation 526D]
effect of the substitutions on the β-sheet conformation of the probe [5]: destabilize the β-sheet conformation

KLVFFAEDVGSNKDADIELMK (KLVFFAEDVGSNKDADIELMK) [AD323, P22, with point mutations H29D and I31D]
effect of the substitutions on the β-sheet conformation of the probe [5]: destabilize the β-sheet conformation

KLVFFAEDVGSNKDAIIELMK (KLVFFAEDVGSNKDAIIELMK) [AD328, P22, with point mutation H29D]
effect of the substitutions on the β-sheet conformation of the probe [5]: destabilize the β-sheet conformation

KLVFFAEDVGSNKGAISGLMK (KLVFFAEDVGSNKGAISGLMK) [Peptide 132S, Wildtype, with I32S point mutation]
effect of the substitutions on the β-sheet conformation of the probe [5]: destabilize the β-sheet conformation

KLVFFAEDVGSNKHADIELMK (KLVFFAEDVGSNKHADIELMK) [AD330, P22, with point mutation I31D]
effect of the substitutions on the β-sheet conformation of the probe [5]: destabilize the β-sheet conformation

KLVFFAEDVGSNKHAIIEDMK (KLVFFAEDVGSNKHAIIEDMK) [AD329, P22, with point mutation L34D]
effect of the substitutions on the β-sheet conformation of the probe [5]: destabilize the β-sheet conformation

KLVFFAEDVGSNKKAIIELMK (KLVFFAEDVGSNKKAIIELMK) [Peptide 22 variation 2, Salt bridge at G29K and G33E]
reactivity with Aβ42 oligomers (transition from pyrene excimer fluorescence to pyrene self-fluorescence) [2]: react with Aβ42 oligomers

KLVFFAEDVGSNKRAIIELMK (KLVFFAEDVGSNKRAIIELMK) [Peptide 22 variation 1, Salt bridge at G29R and G33E]
reactivity with Aβ42 oligomers (transition from pyrene excimer fluorescence to pyrene self-fluorescence) [2]: react with Aβ42 oligomers

KLVSFAEDVGSNKHAIIELMK (KLVSFAEDVGSNKHAIIELMK) [GM6 variation 1, P22, with point mutation F19S]
effect of the substitutions on the β-sheet conformation of the probe [5]: destabilize the β-sheet conformation

KLVSFAEDVGSNKHAIIEPMK (KLVSFAEDVGSNKHAIIEPMK) [GM6, P22, with point mutations F19S, L34P]
effect of the substitutions on the β-sheet conformation of the probe [5]: destabilize the β-sheet conformation
